Data from US20060177826A1 (SERUM BIOMEDICAL INSTITUTE, published 2006).

Target: T1, human beta-FSH subunit (SDK-X1X2 expression product) (human, UniProt P01225 19-129)
T1 construct: Expressed from pTPKBFSH in co-transfected COS-7L and CHO-S cells and tested as secreted protein in the culture supernatant; also called β subunit of human FSH
Test: FSH-IRMA sandwich immunoradiometric assay (one mAb for the alpha subunit, one for the beta subunit) on supernatant of co-transfected cells; detects only the complete alpha and beta complex
Procedure: Following transfection, the cells were cultured in a selective medium containing 1000 μg/ml Geneticine and 400 μg/ml Blasticidin for 7 days. Geneticine-Blasticidine-resistant cells were transferred in a new culture medium containing Geneticine (200 μg/ml) and Blasticidin (200 μg/mL), and cultured to a cell density of 10⁶ cells/ml. The supernatant of this culture was than tested for the presence of the multisubunit (alpha subunit and beta subunit non-covalently associated) FSH complex.
The presence of the alpha and beta FSH complex was detected using the BIOSOURCE FSH-IRMA Kit (Biosource Europe S.A., Cat # KIP0841-KIP0844), an immunoradiometric assay kit for the quantitation of Follicle Stimulating Hormone (FSH). This FSH-IRMA assay is based on the use of two monoclonal antibodies, one specific for the alpha subunit of FSH and one for the beta subunit of FSH. Thus this assay only detects the complete alpha and beta FSH complex. The supernatant of pLenti6/V5-glycalA and the pTPKBFSH co-transfected cells was tested using the FSH-IRMA kit according to manufacturer's instructions.

T1 sequence (P01225 19-129 limits assumed): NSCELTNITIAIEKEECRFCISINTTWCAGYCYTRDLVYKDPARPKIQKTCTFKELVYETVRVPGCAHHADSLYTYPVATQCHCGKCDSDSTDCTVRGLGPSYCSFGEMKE

binding result: binds
B1: human alpha-FSH subunit (glycalA expression product) (ligand)
chain: not shown
notes: Expressed from pLenti6/V5-glycalA in co-transfected COS-7L and CHO-S cells and tested as secreted protein in the culture supernatant; also called alpha subunit of FSH
